{"source": "paper PMC5352116", "about": "“Quinacrine induces apoptosis in cancer cells by forming a functional bridge between TRAIL-DR5 complex and modulating the mitochondrial intrinsic cascade” (Oncotarget, 2016)", "biological_target": "T1, Death Receptor 5 (DR5) (human (endogenous in MCF-10A-Tr), UniProt O14763 56-440)", "T1 construct": "Death receptor 5 (DR5, TRAIL-R2/Killer), endogenous in MCF-10A-Tr cells (derived from the human breast epithelial line MCF-10A); precipitated with an anti-DR5 antibody; also called TRAIL-R2; Killer; source: endogenous, MCF-10A-Tr cells (on cells; RIPA lysate)", "assay": "co-IP; DISC analysis: MCF-10A-Tr cells untreated or treated with QC, TRAIL or TRAIL (10 ng/mL, 3 h) then QC (2.5 uM, 48 h); RIPA lysate, pre-cleared with sepharose-4B beads, immunoprecipitated with anti-DR5 antibody at 4°C overnight; western blot", "details": "partners not purified", "data": [{"binder": "Fas-Associated protein with Death Domain (FADD) (natural protein, human (endogenous in MCF-10A-Tr), UniProt Q13158 1-208, looked up, FADD, adaptor protein of the DISC, endogenous in MCF-10A-Tr cells; source: endogenous, MCF-10A-Tr lysate) MDPFLVLLHSVSSSLSSSELTELKFLCLGRVGKRKLERVQSGLDLFSMLLEQNDLEPGHTELLRELLASLRRHDLLRRVDDFEAGAAAGAAPGEEDLCAAFNVICDNVGKDWRRLARQLKVSDTKIDSIEDRYPRNLTERVRESLRIWKNTEKENATVAHLVGALRSCQMNLVADLVQEVQQARDLQNRSGAMSPMSWNSDASTSEAS", "values": [{"measurement": "fold level in the DISC (anti-DR5 immunoprecipitate), TRAIL+QC treated against untreated cells", "value": 8, "unit": "fold"}]}]}
